Experimental data published in the supplement of paper PMC7877785.
± gives the uncertainty stated by the source.

Assay: self-splicing fitness, log relative to wild type (ln ratio); higher = more splicing; Tetrahymena group I intron in knt gene, E. coli kanamycin selection, DiMSum; sequences stand for … in CUCUCU…GGAGGGAAAAGUUAUCAGGCAUGCACCUGGUAGCUAGUCUUUAAACCAAUAGAUUGCAUCGGUUUAAAAGGCAAGACCGUCAAAUUGCGGGAAAGGGGUCAACAGCCGUUCAGUACCAAGUCUCAGGGGAAACUUUGAGAUGGCCUUGCAAAGGGUAUGGUAAUAAGCUGACGGACAUGGUCCUAACCACGCAGCCAAGUCCUAAGUCAACAGAUCUUCUGUUGAUAUGGAUGCAGUUCACAGACUAAAUGUCGGUCGGGGAAGAUGUAUUCUUCUCAUAAGAUAUAGUCGGACCUCUCCUUAAUGGGAGCUAGCGGAUGAAGUGAUGCAACACUGGAGCCGCUGGGAACUAAUUUGUAUGCGAAAGUAUAUUGAUUAGUUUUGGAGUACUCGUGGUCG
In short: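 Six replicate transformations of E. coli BL21(DE3) with a pET-22b(+) library were grown overnight at 37°C or 30°C. The library randomised all eight P1ex-region intron nucleotides, the intron lying in the knt kanamycin-resistance gene, and plates were LB agar with or without 25 μg/mL kanamycin plus 100 μg/mL carbenicillin, 50 μM IPTG and 0.2% rhamnose. Pooled colonies were amplicon-sequenced on an Illumina HiSeq 2500, and fitness is the DiMSum error-weighted combination of wild-type-normalised replicate fold changes, kanamycin versus none.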

| Sequence | self-splicing fitness (ln) (30 °C) | self-splicing fitness (ln) (37 °C) |
| --- | --- | --- |
| UUCCAGCAAUAUUACGUAAU | -2.36 ± 0.11 | -0.639 ± 0.12 |
| UGAUAGCAAUAUUACGUGUC | -3.92 ± 0.28 | -2.49 ± 0.26 |
| GAAAAGCAAUAUUACGGCAC | -0.696 ± 0.058 | -0.217 ± 0.093 |
| ACAAAGCAAUAUUACGCGCU | -0.245 ± 0.053 | 0.00495 ± 0.066 |
| AUGCAGCAAUAUUACGGGCG | 0.108 ± 0.089 | 0.464 ± 0.11 |
| UUAUAGCAAUAUUACGUGGG | -3.41 ± 0.26 | -2.15 ± 0.23 |
| GGUCAGCAAUAUUACGACUA | 0.124 ± 0.092 | 0.866 ± 0.13 |
| ACUCAGCAAUAUUACGCGUG | -1.35 ± 0.073 | -0.547 ± 0.081 |
| UAUGAGCAAUAUUACGCCUA | -1.59 ± 0.18 | -0.615 ± 0.21 |
| ACUCAGCAAUAUUACGCUCA | -0.566 ± 0.096 | 0.105 ± 0.14 |
| CAGCAGCAAUAUUACGGGGC | -3.66 ± 0.14 | -2.45 ± 0.15 |
| GCCUAGCAAUAUUACGACGG | -3.6 ± 0.31 | -2.37 ± 0.27 |
| ACGGAGCAAUAUUACGUGCA | – | -1.4 ± 0.22 |
| AGCCAGCAAUAUUACGAAAU | -3.02 ± 0.11 | -2.17 ± 0.13 |
| UGAUAGCAAUAUUACGUUAC | -3.01 ± 0.31 | -1.08 ± 0.22 |
| CAAAAGCAAUAUUACGCCUA | -2.75 ± 0.27 | -1.51 ± 0.17 |
| GGCGAGCAAUAUUACGUCUG | -4.26 ± 0.29 | -2.53 ± 0.16 |
| UGCUAGCAAUAUUACGUCAG | -2.36 ± 0.12 | -1.33 ± 0.12 |
| GAAUAGCAAUAUUACGUUCC | -3.17 ± 0.32 | – |
| CUCCAGCAAUAUUACGGGGU | -3.58 ± 0.17 | -2.61 ± 0.19 |
| GGUGAGCAAUAUUACGGAAC | -1.27 ± 0.21 | -0.837 ± 0.24 |
| AAAUAGCAAUAUUACGCUUG | -1.77 ± 0.087 | -0.8 ± 0.12 |
| AAUCAGCAAUAUUACGUCGU | -0.489 ± 0.054 | 0.414 ± 0.071 |
| UCCGAGCAAUAUUACGUUUU | -3.83 ± 0.25 | -0.687 ± 0.15 |
| GCGUAGCAAUAUUACGAAAC | -0.751 ± 0.25 | -0.283 ± 0.4 |

| Sequence | self-splicing fitness (ln) (30 °C) | self-splicing fitness (ln) (37 °C) |
| --- | --- | --- |
| AACUAGCAAUAUUACGCUUG | -2.18 ± 0.11 | -1.16 ± 0.12 |
| GUCGAGCAAUAUUACGCUAU | -2.01 ± 0.12 | -1.36 ± 0.12 |
| CUCUAGCAAUAUUACGUGAG | -3.45 ± 0.18 | -2.12 ± 0.19 |
| CAGUAGCAAUAUUACGACUG | -4.55 ± 0.26 | -2.84 ± 0.23 |
| GCUGAGCAAUAUUACGGCUA | -2.46 ± 0.19 | -1.66 ± 0.19 |
| GUAGAGCAAUAUUACGCUUU | -2.36 ± 0.19 | -2 ± 0.23 |
| AAGUAGCAAUAUUACGAGCA | -1.52 ± 0.15 | -0.816 ± 0.14 |
| AAUCAGCAAUAUUACGUCAC | -3.34 ± 0.27 | -1.93 ± 0.19 |
| AGUCAGCAAUAUUACGCUUG | -2.79 ± 0.15 | -0.514 ± 0.15 |
| CCAUAGCAAUAUUACGCCGU | -4.03 ± 0.34 | -1.91 ± 0.35 |
| CGCCAGCAAUAUUACGGCAG | -2.3 ± 0.11 | -1.02 ± 0.12 |
| UGCGAGCAAUAUUACGGUGU | -4.19 ± 0.23 | -3.16 ± 0.4 |
| AAGAAGCAAUAUUACGAGCU | -0.998 ± 0.087 | -1.22 ± 0.11 |
| AAAAAGCAAUAUUACGAACA | -0.675 ± 0.092 | -0.407 ± 0.11 |
| UCCAAGCAAUAUUACGGAGC | -3.35 ± 0.37 | -2.44 ± 0.26 |
| CAGCAGCAAUAUUACGUUGA | -2.82 ± 0.16 | -1.93 ± 0.18 |
| AAAUAGCAAUAUUACGCACA | -0.634 ± 0.097 | -0.2 ± 0.14 |
| UUAGAGCAAUAUUACGAGUU | – | -2.05 ± 0.39 |
| AAUAAGCAAUAUUACGAUGA | -0.45 ± 0.1 | -0.0904 ± 0.11 |
| CUUCAGCAAUAUUACGGCAA | -2.87 ± 0.48 | -1.92 ± 0.41 |
| GAAUAGCAAUAUUACGUAAU | -2.99 ± 0.13 | -0.789 ± 0.11 |
| AAUAAGCAAUAUUACGAGUU | -1.32 ± 0.087 | -1.1 ± 0.1 |
| AGGUAGCAAUAUUACGCGCU | -1.13 ± 0.017 | -0.72 ± 0.036 |
| AUUAAGCAAUAUUACGCGCU | -0.542 ± 0.11 | -0.561 ± 0.15 |
| UGGCAGCAAUAUUACGGUAA | -0.651 ± 0.089 | 0.0797 ± 0.093 |

| Sequence | self-splicing fitness (ln) (30 °C) | self-splicing fitness (ln) (37 °C) |
| --- | --- | --- |
| AGCAAGCAAUAUUACGUCUG | -2.22 ± 0.09 | -1.15 ± 0.095 |
| UCACAGCAAUAUUACGCAGC | -3.29 ± 0.2 | -2.62 ± 0.25 |
| CUAGAGCAAUAUUACGGAGU | -4.15 ± 0.33 | -2.87 ± 0.43 |
| UCCUAGCAAUAUUACGGCAC | – | -2.14 ± 0.24 |
| ACCGAGCAAUAUUACGGAGA | -1.34 ± 0.29 | -1.48 ± 0.28 |
| CACUAGCAAUAUUACGAUCC | -2.56 ± 0.33 | -1.91 ± 0.34 |
| UAGCAGCAAUAUUACGAGUU | -3.47 ± 0.15 | -1.98 ± 0.14 |
| CCGAAGCAAUAUUACGCGCU | – | -2.26 ± 0.42 |
| UGACAGCAAUAUUACGGGUG | -0.383 ± 0.052 | -0.732 ± 0.074 |
| GCGAAGCAAUAUUACGUCGU | -3.79 ± 0.27 | -2.6 ± 0.28 |
| UGUGAGCAAUAUUACGAGAU | -3.75 ± 0.37 | -2.53 ± 0.41 |
| CGCCAGCAAUAUUACGGUCG | -4.17 ± 0.19 | -2.5 ± 0.2 |
| UGUUAGCAAUAUUACGGACC | 0.127 ± 0.12 | 0.443 ± 0.16 |
| UACAAGCAAUAUUACGAUAC | -3.7 ± 0.44 | -2.34 ± 0.25 |
| UUCCAGCAAUAUUACGUCAA | -1.3 ± 0.1 | -0.233 ± 0.12 |
| AAGUAGCAAUAUUACGGGCU | -2.02 ± 0.12 | -1.44 ± 0.13 |
| UGGCAGCAAUAUUACGCAGA | -1.21 ± 0.14 | -0.916 ± 0.12 |
| UCUUAGCAAUAUUACGUAGU | -2.27 ± 0.13 | -1.35 ± 0.14 |
| GUGGAGCAAUAUUACGUUUA | -3.33 ± 0.2 | -2.26 ± 0.33 |
| CUGUAGCAAUAUUACGACGG | -2.64 ± 0.23 | -1.07 ± 0.42 |
| UGAAAGCAAUAUUACGUGAU | -0.954 ± 0.077 | -1.45 ± 0.13 |
| GCGCAGCAAUAUUACGAUCG | -1.61 ± 0.11 | 0.00803 ± 0.12 |
| UCAGAGCAAUAUUACGUGUG | -2.67 ± 0.13 | -2.53 ± 0.13 |
| AAAAAGCAAUAUUACGCAUU | -2.5 ± 0.1 | -1.8 ± 0.11 |
| UGUAAGCAAUAUUACGUCGA | -1.42 ± 0.1 | -0.213 ± 0.12 |

| Sequence | self-splicing fitness (ln) (30 °C) | self-splicing fitness (ln) (37 °C) |
| --- | --- | --- |
| GACCAGCAAUAUUACGGACA | -0.345 ± 0.078 | -0.496 ± 0.081 |
| CUAAAGCAAUAUUACGACAU | -3.986 ± 0.024 | -2.72 ± 0.039 |
| AAUCAGCAAUAUUACGAUGG | -1.49 ± 0.1 | -0.853 ± 0.12 |
| UGAGAGCAAUAUUACGUCCU | -3.05 ± 0.24 | -2.57 ± 0.49 |
| GAUCAGCAAUAUUACGGCAA | -0.689 ± 0.084 | -1.24 ± 0.087 |
| UGGCAGCAAUAUUACGCCGG | -1.64 ± 0.14 | -0.838 ± 0.2 |
| CAUAAGCAAUAUUACGAAUC | -3.25 ± 0.25 | -3.34 ± 0.37 |
| CUUAAGCAAUAUUACGUGGU | -4 ± 0.21 | -2.35 ± 0.2 |
| CUACAGCAAUAUUACGUAGU | -3.43 ± 0.14 | -2.49 ± 0.2 |
| UAAUAGCAAUAUUACGCCCG | – | 0.42 ± 0.42 |
| CGCAAGCAAUAUUACGACCG | -1.4 ± 0.11 | -0.441 ± 0.14 |
| AUCUAGCAAUAUUACGCUAC | -1.85 ± 0.34 | -1.72 ± 0.4 |
| GGCCAGCAAUAUUACGGUUC | -3.72 ± 0.17 | -0.463 ± 0.12 |
| CUUUAGCAAUAUUACGCGCA | -2.5 ± 0.31 | -1.77 ± 0.42 |
| GUUAAGCAAUAUUACGCCCU | -0.813 ± 0.14 | -0.242 ± 0.11 |
| CGCCAGCAAUAUUACGUAUA | -4.14 ± 0.23 | -3.42 ± 0.23 |
| GAUCAGCAAUAUUACGCGGG | -2.31 ± 0.1 | -1.33 ± 0.11 |
| CGCGAGCAAUAUUACGGUCU | -3.82 ± 0.2 | -0.953 ± 0.15 |
| GGCCAGCAAUAUUACGUACU | -0.417 ± 0.08 | -0.256 ± 0.093 |
| GCAGAGCAAUAUUACGGACG | – | -2.96 ± 0.29 |
| GAGUAGCAAUAUUACGUGCC | -1.79 ± 0.23 | -0.846 ± 0.18 |
| ACCCAGCAAUAUUACGCAUU | -0.546 ± 0.043 | 0.216 ± 0.061 |
